# Test results reported in the supplement of paper PMC9112550, “Optimization of the antimicrobial peptide Bac7 by deep mutational scanning” (BMC Biology, 2022).
# Tested on: Escherichia coli TOP10
# Assay: shrunken log2 fold change of peptide-encoding DNA abundance (4.5 h post-induction vs induction); higher = less antimicrobial activity (less host growth inhibition)
# Conditions: time post-induction: 4.5 h; library: site-saturation at positions 5, 18, 19, 20
# 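Further: peptides expressed intracellularly from a pBAD plasmid library in pooled LB shake-flask culture, induced with 0.3% L-arabinose, DNA abundance read by NGS, three biological replicates, DESeq2 with apeglm shrinkage.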
row,Sequence,shrunken log2 fold change
1,RRIRVRPPRLPRPRPRPILYPRP,0.0692
2,RRIRGRPPRLPRPRPRPPLLPRP,0.633
3,RRIRFRPPRLPRPRPRPVNPPRP,-0.154
4,RRIRLRPPRLPRPRPRPCMKPRP,-0.101
5,RRIRMRPPRLPRPRPRPETWPRP,1.44
6,RRIRERPPRLPRPRPRPGVLPRP,-0.177
7,RRIRYRPPRLPRPRPRPVRMPRP,-0.246
8,RRIRIRPPRLPRPRPRPKREPRP,0.0342
9,RRIRQRPPRLPRPRPRPQQRPRP,0.0983
10,RRIRLRPPRLPRPRPRPLDGPRP,-0.0562
11,RRIRERPPRLPRPRPRPPPGPRP,0.418
12,RRIRMRPPRLPRPRPRPDWSPRP,-0.0229
13,RRIRSRPPRLPRPRPRPIKPPRP,0.0213
14,RRIRLRPPRLPRPRPRPTTYPRP,-0.182
15,RRIRQRPPRLPRPRPRPLNYPRP,-0.548
16,RRIRKRPPRLPRPRPRPYDRPRP,0.192
17,RRIRGRPPRLPRPRPRPENMPRP,0.325
18,RRIRFRPPRLPRPRPRPVPCPRP,0.0335
19,RRIRRRPPRLPRPRPRPKFSPRP,0.0704
20,RRIRERPPRLPRPRPRPANDPRP,-0.0189
21,RRIRHRPPRLPRPRPRPRQWPRP,0.408
22,RRIRVRPPRLPRPRPRPLGMPRP,-0.481

row,Sequence,shrunken log2 fold change
1,RRIRIRPPRLPRPRPRPPFRPRP,-0.0473
2,RRIRWRPPRLPRPRPRPAERPRP,0.0973
3,RRIRKRPPRLPRPRPRPKGYPRP,-0.00627
4,RRIRPRPPRLPRPRPRPGTQPRP,0.185
5,RRIRNRPPRLPRPRPRPIPRPRP,0.0496
6,RRIRMRPPRLPRPRPRPTGEPRP,0.0299
7,RRIRGRPPRLPRPRPRPADIPRP,-0.229
8,RRIRNRPPRLPRPRPRPMHCPRP,-0.0148
9,RRIRARPPRLPRPRPRPYMSPRP,0.00296
10,RRIRFRPPRLPRPRPRPDVDPRP,0.0167
11,RRIRYRPPRLPRPRPRPPMFPRP,-0.806
12,RRIRCRPPRLPRPRPRPWFAPRP,-0.183
13,RRIRQRPPRLPRPRPRPQRQPRP,0.0235
14,RRIRSRPPRLPRPRPRPTTIPRP,0.127
15,RRIRCRPPRLPRPRPRPKIEPRP,-0.0736
16,RRIRKRPPRLPRPRPRPPCSPRP,0.202
17,RRIRTRPPRLPRPRPRPDYYPRP,-0.356
18,RRIRSRPPRLPRPRPRPQGAPRP,2.34
19,RRIRSRPPRLPRPRPRPDQSPRP,0.217
20,RRIRCRPPRLPRPRPRPPADPRP,0.95
21,RRIRHRPPRLPRPRPRPSNFPRP,-0.108
22,RRIRMRPPRLPRPRPRPHNAPRP,0.207

row,Sequence,shrunken log2 fold change
1,RRIRMRPPRLPRPRPRPPIMPRP,0.0866
2,RRIRSRPPRLPRPRPRPFIIPRP,-0.34
3,RRIRDRPPRLPRPRPRPPHFPRP,0.173
4,RRIRLRPPRLPRPRPRPSPPPRP,0.198
5,RRIRMRPPRLPRPRPRPWSEPRP,0.0897
6,RRIRWRPPRLPRPRPRPVQMPRP,0.159
7,RRIRPRPPRLPRPRPRPFCDPRP,-0.233
8,RRIRSRPPRLPRPRPRPARRPRP,0.0588
9,RRIRTRPPRLPRPRPRPEWTPRP,0.188
10,RRIRNRPPRLPRPRPRPYFLPRP,-0.897
11,RRIRVRPPRLPRPRPRPGDIPRP,-0.264
12,RRIRSRPPRLPRPRPRPQWLPRP,-0.32
13,RRIRWRPPRLPRPRPRPSEVPRP,-0.0251
14,RRIRLRPPRLPRPRPRPPVYPRP,0.0309
15,RRIRARPPRLPRPRPRPWHMPRP,-0.361
16,RRIRERPPRLPRPRPRPRSDPRP,-0.323
17,RRIRARPPRLPRPRPRPYFPPRP,-0.418
18,RRIRFRPPRLPRPRPRPRTTPRP,0.299
19,RRIRWRPPRLPRPRPRPCKKPRP,0.0155
20,RRIRGRPPRLPRPRPRPMQSPRP,0.47
21,RRIRERPPRLPRPRPRPMLCPRP,0.05
22,RRIRVRPPRLPRPRPRPDRDPRP,0.0414

row,Sequence,shrunken log2 fold change
1,RRIRDRPPRLPRPRPRPPIIPRP,-0.0464
2,RRIRIRPPRLPRPRPRPIEQPRP,-0.489
3,RRIRVRPPRLPRPRPRPFGQPRP,-0.222
4,RRIRCRPPRLPRPRPRPIYGPRP,-0.203
5,RRIRERPPRLPRPRPRPRESPRP,-0.329
6,RRIRLRPPRLPRPRPRPAVMPRP,0.113
7,RRIRKRPPRLPRPRPRPGPNPRP,0.795
8,RRIRLRPPRLPRPRPRPDVFPRP,-0.165
9,RRIRERPPRLPRPRPRPTFPPRP,-0.44
10,RRIRRRPPRLPRPRPRPILSPRP,0.246
11,RRIRKRPPRLPRPRPRPWTDPRP,-0.00992
12,RRIRNRPPRLPRPRPRPCFTPRP,-0.733
13,RRIRPRPPRLPRPRPRPFNPPRP,-0.296
14,RRIRCRPPRLPRPRPRPKPKPRP,0.407
15,RRIRQRPPRLPRPRPRPYHKPRP,0.0375
16,RRIRERPPRLPRPRPRPYPNPRP,-1.19
17,RRIRLRPPRLPRPRPRPCCAPRP,0.694
18,RRIRCRPPRLPRPRPRPSHPPRP,-0.0807
19,RRIRDRPPRLPRPRPRPAHLPRP,0.0723
20,RRIRKRPPRLPRPRPRPGIVPRP,0.0403
21,RRIRERPPRLPRPRPRPSKPPRP,0.0303
22,RRIRQRPPRLPRPRPRPQFMPRP,-0.302

row,Sequence,shrunken log2 fold change
1,RRIRARPPRLPRPRPRPWRLPRP,0.466
2,RRIRSRPPRLPRPRPRPCREPRP,0.157
3,RRIRIRPPRLPRPRPRPLSVPRP,-0.254
4,RRIRERPPRLPRPRPRPAMAPRP,0.631
5,RRIRPRPPRLPRPRPRPMRPPRP,1.04
6,RRIRCRPPRLPRPRPRPGSCPRP,-0.0844
7,RRIRPRPPRLPRPRPRPQVFPRP,0.0117
8,RRIRWRPPRLPRPRPRPAIRPRP,0.639
9,RRIRSRPPRLPRPRPRPQHAPRP,-0.153
10,RRIRYRPPRLPRPRPRPNGMPRP,-0.0465
11,RRIRGRPPRLPRPRPRPQQIPRP,0.457
12,RRIRHRPPRLPRPRPRPSTMPRP,-0.493
13,RRIRVRPPRLPRPRPRPGNLPRP,-0.101
14,RRIRRRPPRLPRPRPRPNMPPRP,-0.342
15,RRIRVRPPRLPRPRPRPMMDPRP,-0.154
16,RRIRLRPPRLPRPRPRPPEHPRP,0.188
17,RRIRTRPPRLPRPRPRPRLPPRP,0.119
18,RRIRTRPPRLPRPRPRPPMRPRP,0.957
19,RRIRMRPPRLPRPRPRPWDVPRP,0.0498
20,RRIRGRPPRLPRPRPRPKHIPRP,-0.00571
21,RRIRTRPPRLPRPRPRPKAWPRP,0.255
